This note sets out measurements from patent publication US20220281980A1 (Bristol-Myers Squibb, published 2022).

A word on the Kd: it is the constant that tells how readily two partners part at equilibrium. As usually defined, the EC50 is the concentration at which the effect is half-maximal.

Assay [1] addresses T1, cynomolgus monkey MICA/B clone #6 expressed on CHO cells (cynomolgus monkey).
T1 construct: whole, on cells; also called cyno#6; CHO-cyno MICA clone #6
Put plainly: saturation binding of 125I-labelled antibody on CHO-MICA Cyno #6 cells, 25K per well; fit of total binding, non-specific binding not subtracted. As for the experimental part:
(§1) Nonspecific binding was determined by binding in the presence of a titration of a 100 fold molar excess of unlabeled antibody and was subtracted from total counts per minute (CPM) to calculate specific binding. A linear standard curve of ¹²⁵I-MICA.36 concentration versus CPM was used to extrapolate specific activity, maximal nM bound ¹²⁵I-MICA.36 and thereby calculate receptor number per cell.
(§2) Specific activity of the iodinated MICA.36 was determined by plotting antibody titrations against the associated CPMs in a standard curve (FIG. 7A). The specific activity was calculated to be 164,214 CPM in 1 nM of ¹²⁵I-MICA.36. The number of receptors per cell was calculated by the following equation: (Bmax)×(Avogadro's number)×(Assay Volume)/# of cells per well.

The target of assay [2] is T2, human MICA*008 expressed on CHO cells (human, UniProt Q29983 24-331).
T2 construct: also called MICA allele 008
T2 chain: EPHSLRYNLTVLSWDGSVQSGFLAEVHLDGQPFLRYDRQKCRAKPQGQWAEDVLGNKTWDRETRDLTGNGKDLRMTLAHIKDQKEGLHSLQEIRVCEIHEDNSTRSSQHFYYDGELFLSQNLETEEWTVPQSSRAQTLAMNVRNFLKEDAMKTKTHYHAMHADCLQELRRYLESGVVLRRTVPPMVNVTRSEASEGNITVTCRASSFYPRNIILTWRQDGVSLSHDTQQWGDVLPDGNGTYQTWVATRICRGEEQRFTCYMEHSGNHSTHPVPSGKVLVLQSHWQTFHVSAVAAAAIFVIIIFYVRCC
Put plainly: saturation binding of 125I-labelled antibody on CHO-MICA*008 cells, 12,500 cells/well; fit of total binding, non-specific binding not subtracted. How it is done:
as §1, §2

Assay [3] has as its target T3, human MICA/B endogenously expressed on SW480 cells (human, UniProt Q29983 24-383).
T3 construct: whole, on cells
T3 sequence (looked up): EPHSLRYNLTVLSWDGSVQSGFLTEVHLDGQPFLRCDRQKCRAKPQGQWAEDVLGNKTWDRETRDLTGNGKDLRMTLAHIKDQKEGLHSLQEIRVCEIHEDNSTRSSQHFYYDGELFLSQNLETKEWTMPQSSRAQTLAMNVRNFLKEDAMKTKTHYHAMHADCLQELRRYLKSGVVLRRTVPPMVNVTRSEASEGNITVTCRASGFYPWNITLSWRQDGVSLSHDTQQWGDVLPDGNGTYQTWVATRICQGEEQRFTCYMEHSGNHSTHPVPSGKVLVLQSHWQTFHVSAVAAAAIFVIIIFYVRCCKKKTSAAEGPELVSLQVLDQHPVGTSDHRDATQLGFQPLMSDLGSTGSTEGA
The experiment in a line: saturation binding of 125I-labelled antibody on SW480 cells, 25,000 cells/well (Scatchard analysis); x axis 'Ab' carries no unit, nM taken from paragraph 587; non-specific binding is nearly as high as specific binding. How it is done: as §1, §2

Assay [4] deals with T1, cynomolgus monkey MICA/B clone #6 …. The experiment in a line: flow cytometry (GMFI, FACSCalibur), CHO cells with cyno MICA #6; unit from the x axis; curve from about 1500 at 0.1 ug/ml to about 40500 GMFI at 40 ug/ml.
Assay [5] concerns the target T4, cynomolgus monkey MICA/B clone #4 expressed on CHO cells (cynomolgus monkey).
T4 construct: whole, on cells; also called cyno#4; CHO-cyno MICA clone #4
The experiment in a line: flow cytometry (GMFI, FACSCalibur), CHO cells with cyno MICA #4; unit from the x axis; curve from about 13000 at 0.1 ug/ml to about 94500 GMFI at 40 ug/ml. A general note: In flow cytometry, cells or beads pass a laser one at a time.

B1: MICA.36 (antibody, V domains shown)
VH: QVQLVESGGGVVQPGRSLRLSCAASGFTFSNYAMHWVRQAPGEGLEWVALIWYDGSNKFYGDSVKGRFTISRDNSKNTLYLQMNSLSAEDTAVYYCAREGSGHYWGQGTLVTVSS
VL: AIQLTQSPSSLSASVGDRVTITCRASQGISSALAWYQQKPGKVPKSLIYDASSLESGVPSRFSGSGSGTDFTLTISSLQPEDFATYYCQQFNSYPITFGQGTRLEIK
notes: it says that the name implies no specific constant region; Radioiodinated in the Scatchard assay; also called MICA.36 antibody
With B1, the “Kd of the total-binding curve” value amounted to 8.27 nM in assay [1] and 1.24 nM in assay [2]. Besides, in assay [3], the Kd was determined as 0.385 nM.

B2: 19G6 (antibody, V domains shown)
VH: QVQLVESGGGVVQPGRSLRLSCAASGFTFSNYAMHWVRQAPGEGLEWVALIWYDGSNKFYGDSVKGRFTISRDNSKNTLYLQMNSLSAEDTAVYYCAREGSGHYWGQGTLVTVSS
VL: AIQLTQSPSSLSASVGDRVTITCRASQGISSALAWYQQKPGKVPKSLIYDASSLESGVPSRFSGSGSGTDFTLTISSLQPEDFATYYCQQFNSYPITFGQGTRLEIK
notes: Hybridoma antibody from human IgG transgenic mice, parent of MICA.36; also called 19G6 mAb; hybridoma 19G6
As for B2, the EC50 in assay [4] worked out at 3.3 µg/mL; in assay [5] it was 0.161 µg/mL.
